One block for each binder: values may come before it. Numbered stars: 1 amine (or outer) side, 2 acyl side, 3 side chain; on linkers, the order of the positions; unused ones are H or OH. Square brackets hold non-standard residues; d marks the D form. Side chains are listed from the residue outwards. * marks the point of attachment. γGlu = O=C(O)[C@H](CCC(=O)[*:2])N[*:1]; Palmitoyl = CCCCCCCCCCCCCCCC(=O)*; Aib = CC(C)(N)C(=O)O
Assays:
human GIP receptor = molecular target: T1, human GIP receptor (human, UniProt P48546 22-466); assay: cell-based or functional assay
T1 sequence (looked up): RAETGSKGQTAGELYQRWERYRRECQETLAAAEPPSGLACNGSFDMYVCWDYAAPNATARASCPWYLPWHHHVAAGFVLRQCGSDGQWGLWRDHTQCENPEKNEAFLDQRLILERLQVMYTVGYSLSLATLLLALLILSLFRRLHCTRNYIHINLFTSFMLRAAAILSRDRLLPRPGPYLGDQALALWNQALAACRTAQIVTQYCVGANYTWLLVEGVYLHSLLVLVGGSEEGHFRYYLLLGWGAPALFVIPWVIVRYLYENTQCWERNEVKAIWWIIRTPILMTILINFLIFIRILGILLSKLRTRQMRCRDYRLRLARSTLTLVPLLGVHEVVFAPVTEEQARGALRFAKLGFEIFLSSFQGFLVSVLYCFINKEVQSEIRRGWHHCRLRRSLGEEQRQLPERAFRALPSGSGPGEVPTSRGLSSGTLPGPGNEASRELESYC

human GLP-1 receptor = human GLP-1 receptor (human, UniProt P43220 24-463); assay: cell-based or functional assay

- EC50, cAMP induction in HEK293 cells expressing human GIP R (human GIP receptor): 0.053 nM
- EC50, cAMP induction in HEK293 cells expressing human GLP-1 R (human GLP-1 receptor): 0.09 nM
B1: Compound 50 (peptide)
peptide: H-Y[Aib]EGTFTSDYSIYLDEK([γGlu-Palmitoyl])AAKDFIEWLESA-NH2
SMILES: CCCCCCCCCCCCCCCC(=O)N[C@@H](CCC(=O)NCCCC[C@H](NC(=O)[C@H](CCC(=O)O)NC(=O)[C@H](CC(=O)O)NC(=O)[C@H](CC(C)C)NC(=O)[C@H](Cc1ccc(O)cc1)NC(=O)[C@@H](NC(=O)[C@H](CO)NC(=O)[C@H](Cc1ccc(O)cc1)NC(=O)[C@H](CC(=O)O)NC(=O)[C@H](CO)NC(=O)[C@@H](NC(=O)[C@H](Cc1ccccc1)NC(=O)[C@@H](NC(=O)CNC(=O)[C@H](CCC(=O)O)NC(=O)C(C)(C)NC(=O)[C@@H](N)Cc1ccc(O)cc1)[C@@H](C)O)[C@@H](C)O)[C@@H](C)CC)C(=O)N[C@@H](C)C(=O)N[C@@H](C)C(=O)N[C@@H](CCCCN)C(=O)N[C@@H](CC(=O)O)C(=O)N[C@@H](Cc1ccccc1)C(=O)N[C@H](C(=O)N[C@@H](CCC(=O)O)C(=O)N[C@@H](Cc1c[nH]c2ccccc12)C(=O)N[C@@H](CC(C)C)C(=O)N[C@@H](CCC(=O)O)C(=O)N[C@@H](CO)C(=O)N[C@@H](C)C(N)=O)[C@@H](C)CC)C(=O)O

- EC50, cAMP induction in HEK293 cells expressing human GIP R (human GIP receptor): 0.24 nM
- EC50, cAMP induction in HEK293 cells expressing human GLP-1 R (human GLP-1 receptor): 0.11 nM
B2: Compound 51 (peptide)
peptide: H-Y[Aib]EGTFTSDYSKYLDSK([γGlu-Palmitoyl])AAHDFVEWLLRA-NH2
SMILES: CCCCCCCCCCCCCCCC(=O)N[C@@H](CCC(=O)NCCCC[C@H](NC(=O)[C@H](CO)NC(=O)[C@H](CC(=O)O)NC(=O)[C@H](CC(C)C)NC(=O)[C@H](Cc1ccc(O)cc1)NC(=O)[C@H](CCCCN)NC(=O)[C@H](CO)NC(=O)[C@H](Cc1ccc(O)cc1)NC(=O)[C@H](CC(=O)O)NC(=O)[C@H](CO)NC(=O)[C@@H](NC(=O)[C@H](Cc1ccccc1)NC(=O)[C@@H](NC(=O)CNC(=O)[C@H](CCC(=O)O)NC(=O)C(C)(C)NC(=O)[C@@H](N)Cc1ccc(O)cc1)[C@@H](C)O)[C@@H](C)O)C(=O)N[C@@H](C)C(=O)N[C@@H](C)C(=O)N[C@@H](Cc1c[nH]cn1)C(=O)N[C@@H](CC(=O)O)C(=O)N[C@@H](Cc1ccccc1)C(=O)N[C@H](C(=O)N[C@@H](CCC(=O)O)C(=O)N[C@@H](Cc1c[nH]c2ccccc12)C(=O)N[C@@H](CC(C)C)C(=O)N[C@@H](CC(C)C)C(=O)N[C@@H](CCCNC(=N)N)C(=O)N[C@@H](C)C(N)=O)C(C)C)C(=O)O

- EC50, cAMP induction in HEK293 cells expressing human GIP R (human GIP receptor): 0.092 nM
- EC50, cAMP induction in HEK293 cells expressing human GLP-1 R (human GLP-1 receptor): 0.049 nM
B3: Compound 49 (peptide)
peptide: H-Y[Aib]EGTFTSDYSKYLDEK([γGlu-Palmitoyl])AAKDFIEWLESA-NH2
SMILES: CCCCCCCCCCCCCCCC(=O)N[C@@H](CCC(=O)NCCCC[C@H](NC(=O)[C@H](CCC(=O)O)NC(=O)[C@H](CC(=O)O)NC(=O)[C@H](CC(C)C)NC(=O)[C@H](Cc1ccc(O)cc1)NC(=O)[C@H](CCCCN)NC(=O)[C@H](CO)NC(=O)[C@H](Cc1ccc(O)cc1)NC(=O)[C@H](CC(=O)O)NC(=O)[C@H](CO)NC(=O)[C@@H](NC(=O)[C@H](Cc1ccccc1)NC(=O)[C@@H](NC(=O)CNC(=O)[C@H](CCC(=O)O)NC(=O)C(C)(C)NC(=O)[C@@H](N)Cc1ccc(O)cc1)[C@@H](C)O)[C@@H](C)O)C(=O)N[C@@H](C)C(=O)N[C@@H](C)C(=O)N[C@@H](CCCCN)C(=O)N[C@@H](CC(=O)O)C(=O)N[C@@H](Cc1ccccc1)C(=O)N[C@H](C(=O)N[C@@H](CCC(=O)O)C(=O)N[C@@H](Cc1c[nH]c2ccccc12)C(=O)N[C@@H](CC(C)C)C(=O)N[C@@H](CCC(=O)O)C(=O)N[C@@H](CO)C(=O)N[C@@H](C)C(N)=O)[C@@H](C)CC)C(=O)O

Source: patent US20150299281A1 (ZEALAND PHARMA A S, published 2015)
